The values below come from article PMC2605961.

Common to all, as to test: EMSA
On the technique in general: A gel shift assay detects complexes by their altered migration in electrophoresis.

The target of one data set is T1, His-PRH R188A,R189A (human, UniProt Q03014 7-270, R188A;R189A).
T1 sequence: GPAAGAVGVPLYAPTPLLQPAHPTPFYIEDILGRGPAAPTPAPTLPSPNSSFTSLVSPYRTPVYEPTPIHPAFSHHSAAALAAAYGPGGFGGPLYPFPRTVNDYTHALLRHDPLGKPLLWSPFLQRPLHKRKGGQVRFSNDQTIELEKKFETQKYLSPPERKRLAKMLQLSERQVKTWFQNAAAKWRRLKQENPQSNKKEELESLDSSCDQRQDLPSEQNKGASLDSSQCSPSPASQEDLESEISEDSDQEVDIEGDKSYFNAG

A further data set addresses T2, His-PRH N187A (human, UniProt Q03014 7-270, N187A).
T2 sequence: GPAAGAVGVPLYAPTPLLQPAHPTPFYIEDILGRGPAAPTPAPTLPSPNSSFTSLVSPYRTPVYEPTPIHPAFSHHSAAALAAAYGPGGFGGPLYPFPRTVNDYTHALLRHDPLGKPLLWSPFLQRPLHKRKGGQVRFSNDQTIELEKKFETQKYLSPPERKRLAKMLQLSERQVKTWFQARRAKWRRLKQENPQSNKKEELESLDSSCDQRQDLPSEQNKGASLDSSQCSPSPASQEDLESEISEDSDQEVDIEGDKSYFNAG

For another data set, the target named is T3, His-PRH F32E (human, UniProt Q03014 7-270, F32E).
T3 sequence: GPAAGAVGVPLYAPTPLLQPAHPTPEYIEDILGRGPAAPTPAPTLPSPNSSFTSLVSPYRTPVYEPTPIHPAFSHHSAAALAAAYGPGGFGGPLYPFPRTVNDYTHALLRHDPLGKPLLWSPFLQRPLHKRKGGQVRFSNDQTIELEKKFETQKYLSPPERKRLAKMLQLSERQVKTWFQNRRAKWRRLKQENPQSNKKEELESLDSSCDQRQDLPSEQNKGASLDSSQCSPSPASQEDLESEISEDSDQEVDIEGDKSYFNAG

The target in another data set is T4, His-PRH (wild type) (human, UniProt Q03014 7-270).
T4 sequence: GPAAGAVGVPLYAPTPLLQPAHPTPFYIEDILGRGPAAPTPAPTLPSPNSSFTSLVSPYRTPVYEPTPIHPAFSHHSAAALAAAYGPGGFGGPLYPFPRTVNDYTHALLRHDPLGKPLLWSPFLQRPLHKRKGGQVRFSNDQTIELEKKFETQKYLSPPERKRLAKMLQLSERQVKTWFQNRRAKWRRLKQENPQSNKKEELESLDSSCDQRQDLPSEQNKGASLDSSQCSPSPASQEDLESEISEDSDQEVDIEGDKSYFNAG

B1: PRH-binding site oligonucleotide (dsDNA)
DNA 1: GCTTCTGGGAAGCAATTAAAAAATGGCTCGAGCT
DNA 2: CGAGCCATTTTTTAATTGCTTCCCAGA
Consider B1, for which the binding result with His-PRH R188A,R189A is “no binding”; with His-PRH N187A it was “no binding”; with His-PRH F32E, “binds”; in the data set with His-PRH (wild type) it was “binds”.
